Data taken from the supplement of paper PMC10567573.

B1: SCNN1D (parent)
chain: FLGHHSFSVRPGTEATISIREDEV

Variants of: B1
Experiment: protein stability index of a GFP-peptide fusion (GPS, HEK-293T) (PSI 1-6); higher = more stable
Settings: c terminus: a fixed tail appended
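Note: lentivirally expressed fusions sorted by FACS into six bins by GFP to DsRed ratio, PSI derived from sequencing read proportions per bin multiplied by bin number.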

Variant	protein stability index
FLGHHSFSVPPGTEATISIREDEV [R10P]	2.11
FLGHHSFSVAPGTEATISIREDEV [R10A]	1.56
FLGHHSFSVYPGTEATISIREDEV [R10Y]	1.63
FLGHHSFSVMPGTEATISIREDEV [R10M]	2.03
FLGHHSFSVVPGTEATISIREDEV [R10V]	2.41
FLGHHSFSVRYGTEATISIREDEV [P11Y]	1.99
FLGHHSFSVRTGTEATISIREDEV [P11T]	1.59
FLGHHSFSVRKGTEATISIREDEV [P11K]	1.93
FLGHHSFSVRIGTEATISIREDEV [P11I]	2.14
FLGHHSFSVRQGTEATISIREDEV [P11Q]	1.99
FLGHHSFSVRFGTEATISIREDEV [P11F]	1.47
FLGHHSFSVRWGTEATISIREDEV [P11W]	1.97
FLGHHSFSVRPGTEATISIRYDEV [E21Y]	2.52
FLGHHSFSVRPGTEATISIRCDEV [E21C]	1.68
FLGHHSFSVRPGTEATISIRGDEV [E21G]	1.33
FLGHHSFSVRPGTEATISIRNDEV [E21N]	2.11
FLGHHSFSVRPGTEATISIRIDEV [E21I]	3.27
FLGHHSFSVRPGTEATISIREDEF [V24F]	1.76
FLGHHSFSVRPGTEATISIREDEL [V24L]	1.66
FLGHHSFSVRPGTEATISIREDEY [V24Y]	1.48
FLGHHSFSVRPGTEATISIREDEE [V24E]	2.27
FLGHHSFSVRPGTEATISIREDEN [V24N]	1.99
FLGHHSFSVRPGTEATISIREDES [V24S]	1.62
FLGHHSFSVRPGTEATISIREDEA [V24A]	1.8

Variant	protein stability index
FLGHHSFSVRPGTEATISIREDEQ [V24Q]	2.25
FLGHHSFSVRPGTEATISIREDEP [V24P]	1.76
FLGHHSFSVRPGTEATISIREDEH [V24H]	1.76
FLGHHSFSVRPGTEKTISIREDEV [A15K]	1.91
FLGHHSFSVRPGTEVTISIREDEV [A15V]	1.47
FLGHHSFSVRPGTEYTISIREDEV [A15Y]	1.71
FLGHHSFSVRPGTEDTISIREDEV [A15D]	2.08
FLGHHSFSVRPGTEPTISIREDEV [A15P]	2.04
FLGHHSFSVRPGTETTISIREDEV [A15T]	2.31
FLGHHSFSVRPGTEMTISIREDEV [A15M]	1.58
FLGHHSFSVRPGTEATISIRENEV [D22N]	2.23
FLGHHSFSVRPGTEATISIREKEV [D22K]	2.04
FLGHHSFSVRPGTEATISIREHEV [D22H]	1.79
FLGHHSFSVRPGTEATISIREIEV [D22I]	2.39
FLGHHSFSVRPGTEATISIREQEV [D22Q]	1.39
LLGHHSFSVRPGTEATISIREDEV [F1L]	3.99
CLGHHSFSVRPGTEATISIREDEV [F1C]	3.57
YLGHHSFSVRPGTEATISIREDEV [F1Y]	1.97
RLGHHSFSVRPGTEATISIREDEV [F1R]	4.42
NLGHHSFSVRPGTEATISIREDEV [F1N]	4.38
ILGHHSFSVRPGTEATISIREDEV [F1I]	4.02
QLGHHSFSVRPGTEATISIREDEV [F1Q]	4.33
MLGHHSFSVRPGTEATISIREDEV [F1M]	4.68
TLGHHSFSVRPGTEATISIREDEV [F1T]	4.8

Variant	protein stability index
SLGHHSFSVRPGTEATISIREDEV [F1S]	4.38
GLGHHSFSVRPGTEATISIREDEV [F1G]	4.59
ELGHHSFSVRPGTEATISIREDEV [F1E]	5.02
FLGHHSFSVRPLTEATISIREDEV [G12L]	1.71
FLGHHSFSVRPYTEATISIREDEV [G12Y]	1.15
FLGHHSFSVRPVTEATISIREDEV [G12V]	1.57
FLGHHSFSVRPATEATISIREDEV [G12A]	2.2
FLGHHSFSVRPDTEATISIREDEV [G12D]	2.35
FLGHHSFSVRPKTEATISIREDEV [G12K]	1.71
FLGHHSFSVRPWTEATISIREDEV [G12W]	1.42
FLGHHSFSVRPMTEATISIREDEV [G12M]	1.85
FLGIHSFSVRPGTEATISIREDEV [H4I]	2.64
FLGPHSFSVRPGTEATISIREDEV [H4P]	1.7
FLGRHSFSVRPGTEATISIREDEV [H4R]	2.68
FLGEHSFSVRPGTEATISIREDEV [H4E]	3.39
FLGCHSFSVRPGTEATISIREDEV [H4C]	1.39
FLGDHSFSVRPGTEATISIREDEV [H4D]	3.7
FLGYHSFSVRPGTEATISIREDEV [H4Y]	1.42
FLGHHSFSVRPGTEATISIEEDEV [R20E]	2.1
FLGHHSFSVRPGTEATISIGEDEV [R20G]	2.3
FLGHHSFSVRPGTEATISISEDEV [R20S]	2.27
FLGHHSFSVRPGTEATISIIEDEV [R20I]	2.5
FLGHHSFSVRPGTEATISIQEDEV [R20Q]	1.79
FLGHHSFSVRPGTEATISIYEDEV [R20Y]	1.77

Variant	protein stability index
FLGHHSFSVRPGTEATISIWEDEV [R20W]	1.42
FLGHHSFSVRPGTEATISIKEDEV [R20K]	1.73
FPGHHSFSVRPGTEATISIREDEV [L2P]	1.72
FIGHHSFSVRPGTEATISIREDEV [L2I]	2.44
FEGHHSFSVRPGTEATISIREDEV [L2E]	4.5
FAGHHSFSVRPGTEATISIREDEV [L2A]	1.66
FFGHHSFSVRPGTEATISIREDEV [L2F]	2.93
FHGHHSFSVRPGTEATISIREDEV [L2H]	1.33
FVGHHSFSVRPGTEATISIREDEV [L2V]	2.64
FLGHHSESVRPGTEATISIREDEV [F7E]	4.81
FLGHHSASVRPGTEATISIREDEV [F7A]	4.31
FLGHHSPSVRPGTEATISIREDEV [F7P]	4.44
FLGHHSTSVRPGTEATISIREDEV [F7T]	4.81
FLGHHSMSVRPGTEATISIREDEV [F7M]	4.18
FLGHHSLSVRPGTEATISIREDEV [F7L]	4.01
FLGHHSNSVRPGTEATISIREDEV [F7N]	4.38
FLGHHSSSVRPGTEATISIREDEV [F7S]	4.1
FLSHHSFSVRPGTEATISIREDEV [G3S]	2.42
FLDHHSFSVRPGTEATISIREDEV [G3D]	2.77
FLLHHSFSVRPGTEATISIREDEV [G3L]	2.28
FLRHHSFSVRPGTEATISIREDEV [G3R]	2.09
FLVHHSFSVRPGTEATISIREDEV [G3V]	1.64
